From patent publication US20170189363A1, “GASTRIC ACID MODULATORS FOR ORAL DELIVERY OF PEPTIDES AND PROTEINS” (NOVEN PHARMACEUTICALS, INC., priority 2015, published 2017)

Experiments:
Format in all cases: in vivo
[1] = Blood glucose after intravenous ranitidine hydrochloride plus oral insulin/SNAC capsules; details: rats
Procedure: Rats were administered ranitidine hydrochloride (10 mg/kg) intravenously one hour prior to oral dosing with capsules comprising 0.3 mg insulin/20 mg SNAC. In vivo delivery of insulin was measured indirectly by assessing blood glucose levels at periodic intervals using a glucometer. Results are shown in FIG. 1A (each line represents one treated animal). For comparison, rats were orally administered capsules comprising 0.3 mg insulin/20 mg SNAC without administration of ranitidine hydrochloride, and blood glucose levels were assessed. Results are shown in FIG. 1B (each line represents one treated animal).

[2] = Blood glucose after oral capsules of insulin/SNAC/ranitidine hydrochloride; details: rats
Procedure: Rats were orally administered capsules comprising 0.3 mg insulin/10 mg SNAC/10 mg ranitidine hydrochloride, and blood glucose levels were measured at periodic intervals. Results are shown in FIG. 2A (each line represents one treated animal). For comparison, rats were orally administered capsules comprising 0.3 mg insulin/10 mg SNAC (i.e., without ranitidine hydrochloride), and blood glucose levels were assessed. Results are shown in FIG. 2B (each line represents one treated animal).

[3] = Blood glucose after capsule-in-capsule insulin/SNAC with ranitidine hydrochloride; details: dogs
Procedure: In particular, a size 0 capsule containing insulin and SNAC was placed inside an empty size 00 capsule, which was placed inside a size 000 capsule, optionally containing ranitidine hydrochloride. The capsules were administered to dogs and blood glucose levels were assessed. Results are shown in FIG. 3 (♦—with ranitidine hydrochloride; ▪—without ranitidine hydrochloride).

In the case of insulin, the bioavailability of insulin ([1]; oral capsules 0.3 mg insulin/20 mg SNAC with i.v. ranitidine hydrochloride vs without, inferred from blood glucose) is reported as “greater”, the blood glucose levels ([1]; oral capsules 0.3 mg insulin/20 mg SNAC, ranitidine hydrochloride 10 mg/kg intravenously one hour prior, compared with no ranitidine hydrochloride, FIG. 1A vs 1B) is reported as “lower” and the blood glucose levels ([2]; oral capsules 0.3 mg insulin/10 mg SNAC/10 mg ranitidine hydrochloride compared with 0.3 mg insulin/10 mg SNAC, FIG. 2A vs 2B) is reported as “lower”. The bioavailability of insulin ([2]; oral capsules with 10 mg ranitidine hydrochloride vs without, inferred from blood glucose) was “greater”, the blood glucose levels ([3]; capsule-in-capsule 3.6 mg insulin and 500 mg SNAC inner, 150 mg ranitidine hydrochloride outer, compared with no ranitidine hydrochloride, FIG. 3) was “lower” and the bioavailability of insulin ([3]; capsule-in-capsule with 150 mg ranitidine hydrochloride vs without, inferred from blood glucose) was “greater”.
